From publication PMC4485566

Key:
His79 = His79 (UniProt position 85, YIPGTHMAFGG); test: UV-vis; settings: ferric protein implied, His79-mediated alkaline transition
His73 = His73 (UniProt position 79, LTNPKHYIPGT); test: UV-vis; settings: ferric protein implied (alkaline transition); cited from earlier work

iso-1-cytochrome c, WT*/K79H variant (Saccharomyces cerevisiae; K72A;K79H;C102S)
pKa (His79; cited from earlier work): 6.35 ± 0.04

iso-1-cytochrome c, yWT/K73H variant (Saccharomyces cerevisiae; K73H)
pKa (His73): 6.60 ± 0.06

iso-1-cytochrome c, yWT/K79H variant (Saccharomyces cerevisiae; K79H)
pKa (His79): 6.62 ± 0.08
